What was measured:
Assay in all cases: ProteOn SPR binding of 39S to captured chimeric Her2 variants
[1] = target: T1, chimeric human/mouse Her2 variants (Homo sapiens, UniProt P04626, A221T/A298T/D307E/F173L/G201D/G222S/H174R/H193P/H318N/I172V/I184M/L181P/L183D/L317P/M198T/P230R/P283L/R203H/R217G/S196A/S202N/S209P/S214I/T182V/V219I/V272I); conditions: variant KO_II, swapped amino acids 146-310
T1 construct: His tag; made in house; host or cells: HEK293F (transient, pEBNA vector; captured from culture supernatant)
Description: (§1) The domain II of human HER2 was identified as the epitope of 39S by swapping domains between human and mouse Her2 molecules. Mouse Her2 was chosen as the chimeric partner because it is not recognized by 39S, but shares 85% sequence identity with human HER2. Chimeric variants targeting each domain of HER2 were constructed (see method below) as listed in Table 4, including four knock-out (KO, loss-of-function) variants replacing domain I, II, III, or IV of human HER2 with the mouse counterpart, and one knock-in (KI, gain-of-function) variant grafting the domain II of human HER2 into mouse Her2 molecule. The chimeric variant nomenclature denotes types of variants (KO/KI) and the number of domains swapped. The binding profiles of 39S to these variants were characterized using a SPR based instrument ProteOn™ by capturing variants on sensor surfaces using anti-human and mouse Her2 polyclonal antibodies (see method below). The expression of the variants was monitored by anti-His polyclonal antibody using ProteOn™. […] Therefore, the domain II (amino acid 146-310) of human HER2 was identified as the epitope-containing domain of 39S by both loss-of-function and gain-of-function variants.
(§2) We further refined the epitope of 39S and identified the region of amino acid 192-208 in domain II as the critical epitope region. […] Seven knock-out variants were generated by replacing each of the following human HER2 regions with the mouse counterparts, including amino acids 146-208, 159-162, 171-187, 192-208, 250-261, 276-285, and 295-296. In addition, one knock-in variant was constructed by grafting the region of amino acid 192-208 of human HER2 to the mouse molecule. The variant nomenclature denotes types of variants (KO/KI) and the swapped regions with amino acid numbering. All variants had detectable expression levels by anti-His polyclonal antibody (Table 4). […] The binding of 39S was not impacted when substituting any other regions of human HER2 with mouse amino acids (KO_159-162, KO_171-187, KO_250-261, KO_276-285, and KO_295-296). […] Taken together, the region of amino acid 192-208 in domain II of human HER2 was identified as the functional epitope of 39S.
(§3) The variant nomenclature denotes types of variants (KO/KI) and the swapped regions with amino acid numbering. Amino acid positions were denoted basing on the numbering scheme of mature human HER2 sequences without its signal peptide. The expression levels of all variants were monitored by an anti-His polyclonal antibody. The binding profiles of 39S to these variants were characterized using a SPR based instrument ProteOn™ by capturing variants on sensor surfaces using anti-human and mouse Her2 polyclonal antibodies.
(§4) Construction and expression of chimeric human/mouse Her2 variants were constructed as follows. Briefly, DNAs encoding chimeric human/mouse Her2 variants with a His tag were assembled and amplified by overlapping PCR using human and mouse Her2 plasmids as templates (MedImmune). The assembled DNAs were cloned into the mammalian expression vector pEBNA (MedImmune). HEK293F cells were then transiently transfected with the various constructs using 293fectin and standard protocols according to the manufacturer's instructions (Invitrogen).
(§5) The binding characteristics of 39S to chimeric human/mouse variants were studied using a ProteOn™ XPR36 instrument (BioRad). Standard amine coupling was used to immobilize an anti-human or mouse Her2 polyclonal antibody (R&D System) in 10 mM sodium acetate (pH 5.0) to the surface of a GLC biosensor chip at ˜5000 resonance units (RU) for each channel. The chimeric proteins in cell culture supernatant were injected and captured by anti-human or mouse polyclonal antibodies onto the GLC surface with a ˜200RU response. Anti-HER2 mAb 39S was diluted in phosphate-buffered saline (PBS) (pH 7.4) with 0.005% Tween-20 from 10 nM to 0.625 nM (1:2 dilution), and injected at 100 μL/min for 180 sec with a 600-second dissociation time. […]

[2] = target: T2, chimeric human/mouse Her2 variants (Mus musculus, UniProt P70424, A197S/A354V/A504E/D184L/D202G/D360A/D439N/E308D/E418D/E503D/E575V/E586V/E640D/F420L/G218R/G341R/G353E/G389N/G498A/G506V/G558A/H204R/H397Q/H452S/I215S/I220V/I273V/I357V/I623A/K394Q/K549Q/K559R/L174F/L284P/L507G/M185I/N203S/N319H/N385D/N479H/N513H/P182L/P194H/P210S/P318L/Q421P/R175H/R231P/R430Q/R471H/R557N/R641K/S223G/S387A/S453W/S497T/S514Q/S573G/S580P/S594P/S595P/S596F/T199M/T222A/T299A/V173I/V183T/V390T/V511A/W548L/Y578F/Y617F); conditions: variant KO_I, swapped human HER2 amino acids 1-145; apparent affinity, variant captured on chip
T2 construct: His tag; made in house; host or cells: HEK293F (transient, pEBNA vector; captured from culture supernatant)
Description: as §1, §2, §3, §4, §5

[3] = target: T3, chimeric human/mouse Her2 variants (Homo sapiens, UniProt P04626, P283L/V272I); conditions: variant KO_250-261
T3 construct: His tag; made in house; host or cells: HEK293F (transient, pEBNA vector; captured from culture supernatant)
Description: as §1, §2, §3, §4, §5

[4] = target: T4, chimeric human/mouse Her2 variants (Homo sapiens, UniProt P04626, G201D/H193P/M198T/R203H/S196A/S202N/S209P); conditions: variant KO_171-187
T4 construct: His tag; made in house; host or cells: HEK293F (transient, pEBNA vector; captured from culture supernatant)
Description: as §1, §2, §3, §4, §5

[5] = target: T5, chimeric human/mouse Her2 variants (Mus musculus, UniProt P70424, G218R/I215S/I220V/R231P/S223G/T222A); conditions: variant KI_192-208, human amino acids 192-208 grafted into mouse Her2; read-out: The binding affinity of 39S (KD)
T5 construct: His tag; made in house; host or cells: HEK293F (transient, pEBNA vector; captured from culture supernatant)
Description: as §1, §2, §3, §4, §5

[6] = target: T6, chimeric human/mouse Her2 variants (Homo sapiens, UniProt P04626, A221T/F173L/G201D/G222S/H174R/H193P/I172V/I184M/L181P/L183D/M198T/P230R/R203H/R217G/S196A/S202N/S209P/S214I/T182V/V219I); conditions: variant KO_146-208
T6 construct: His tag; made in house; host or cells: HEK293F (transient, pEBNA vector; captured from culture supernatant)
Description: as §1, §2, §3, §4, §5

The binding affinity of 39S (KD) [1]: did not bind and No
Kd [2]: 95 pM
The binding affinity of 39S (KD) [2]: retained binding
The binding affinity of 39S (KD) [3]: not impacted
The binding affinity of 39S (KD) [4]: not impacted
Kd [5]: 72 pM
The binding affinity of 39S (KD) [6]: did not bind and No
B1: 39S: lead optimized monoclonal antibody derived from the 1.39.1 antibody; VH SEQ ID NO:15, VL SEQ ID NO:16 (antibody, V domains shown)
VH: EVQLVESGGGLVKPGGSLRLSCAASGFTFSSYSMSWVRQAPGKGLEWVSSISSSSSYIYYADSVKGRFTISRDNAKNSLYLQMNSLRAEDTAVYYCARGGDAYNYYYFDYWGQGTLVTVSS
VL: DIVMTQTPLSLSVTPGQPASISCKSSQSVFFRSNNKNILAWYLQKPGQPPQLLIYWASSRESGVPDRFSGSGSGTDFTLKISRVEAEDVGVYYCQQYFGSPFTFGPGTKVDIK

From US10160812B2, “Bispecific HER2 antibodies” (MedImmune, LLC, priority 2014, dated 2018)
